Article PMC3597659
Where two headings read alike, the source gives them in different places.

Assays:
HMGB1-WT [1] = molecular target: T1, HMGB1-WT (Homo sapiens, UniProt P09429 2-215); test: fluorescence anisotropy
RAG1c (core RAG1) [2] = molecular target: T2, RAG1c (core RAG1) (Mus musculus, UniProt P15919 384-1008); test: fluorescence anisotropy
T2 sequence: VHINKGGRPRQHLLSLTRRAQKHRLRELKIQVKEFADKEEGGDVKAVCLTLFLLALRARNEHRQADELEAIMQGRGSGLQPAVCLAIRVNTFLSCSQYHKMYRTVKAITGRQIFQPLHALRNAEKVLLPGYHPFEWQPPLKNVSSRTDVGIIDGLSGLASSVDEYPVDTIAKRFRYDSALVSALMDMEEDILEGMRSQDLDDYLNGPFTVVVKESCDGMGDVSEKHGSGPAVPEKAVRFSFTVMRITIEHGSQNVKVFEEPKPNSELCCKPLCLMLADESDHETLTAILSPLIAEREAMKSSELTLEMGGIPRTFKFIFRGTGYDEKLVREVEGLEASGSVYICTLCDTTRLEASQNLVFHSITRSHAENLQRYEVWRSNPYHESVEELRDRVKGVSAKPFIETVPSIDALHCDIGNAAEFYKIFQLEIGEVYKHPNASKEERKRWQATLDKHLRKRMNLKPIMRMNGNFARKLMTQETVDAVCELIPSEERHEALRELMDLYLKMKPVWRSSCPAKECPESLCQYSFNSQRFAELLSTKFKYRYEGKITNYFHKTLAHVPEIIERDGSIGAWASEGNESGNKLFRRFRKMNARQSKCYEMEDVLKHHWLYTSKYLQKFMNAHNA

[3] = molecular target: HMGB1-A488;RAG1c (core RAG1) (Homo sapiens;Mus musculus, UniProt P09429;P15919 2-215;384-1008, C23A;A34C;C45A;C106A|); test: fluorescence anisotropy
[4] = molecular target: T3, HMGB1-WT;RAG1c (core RAG1) (Homo sapiens;Mus musculus, UniProt P09429;P15919 2-215;384-1008, |); test: pull-down
[5] = molecular target: HMGB1-WT;RAG1c (core RAG1);GST-RAG2c (core RAG2) (Homo sapiens;Mus musculus;Mus musculus, UniProt P09429;P15919;P21784 2-215;384-1008;1-387, ||); test: EMSA
HMGB1-WT [6] = molecular target: T1, HMGB1-WT; test: fluorescence anisotropy; remark: listed apart in the source
RAG1c (core RAG1) [7] = molecular target: T2, RAG1c (core RAG1); test: fluorescence anisotropy; remark: listed apart in the source
HMGB1-WT [8] = molecular target: T1, HMGB1-WT; test: pull-down
[9] = molecular target: T3, HMGB1-WT;RAG1c (core RAG1); test: pull-down; remark: listed apart in the source
HMGB1-A488 = HMGB1-A488 (Homo sapiens, UniProt P09429 2-215, C23A;A34C;C45A;C106A); test: EMSA
Chain of HMGB1-A488 (P09429 2-215 C23A/A34C/C45A/C106A): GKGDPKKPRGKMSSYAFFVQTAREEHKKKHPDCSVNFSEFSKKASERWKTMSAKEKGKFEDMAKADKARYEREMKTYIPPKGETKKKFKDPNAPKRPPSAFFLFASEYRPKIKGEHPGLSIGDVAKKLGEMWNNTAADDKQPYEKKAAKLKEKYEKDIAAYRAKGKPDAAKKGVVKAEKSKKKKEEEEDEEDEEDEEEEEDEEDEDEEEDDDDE

Chain of HMGB1-A488;RAG1c (core RAG1) (P09429 2-215 C23A/A34C/C45A/C106A, one chain of several): as the sequence (P09429 2-215 C23A/A34C/C45A/C106A) above
T1 sequence (P09429 2-215): as the sequence (P09429 2-215 C23A/A34C/C45A/C106A) above, with A22C, C33A, A44C, A105C counted along it
T3 sequence (P09429 2-215, one chain of several): as the sequence (P09429 2-215 C23A/A34C/C45A/C106A) above, with A22C, C33A, A44C, A105C counted along it
Chain of HMGB1-WT;RAG1c (core RAG1);GST-RAG2c (core RAG2) (P09429 2-215, chain 1 of 2): as the sequence (P09429 2-215 C23A/A34C/C45A/C106A) above, with A22C, C33A, A44C, A105C counted along it
Chain of HMGB1-WT;RAG1c (core RAG1);GST-RAG2c (core RAG2) (P21784 1-387, chain 3 of 2): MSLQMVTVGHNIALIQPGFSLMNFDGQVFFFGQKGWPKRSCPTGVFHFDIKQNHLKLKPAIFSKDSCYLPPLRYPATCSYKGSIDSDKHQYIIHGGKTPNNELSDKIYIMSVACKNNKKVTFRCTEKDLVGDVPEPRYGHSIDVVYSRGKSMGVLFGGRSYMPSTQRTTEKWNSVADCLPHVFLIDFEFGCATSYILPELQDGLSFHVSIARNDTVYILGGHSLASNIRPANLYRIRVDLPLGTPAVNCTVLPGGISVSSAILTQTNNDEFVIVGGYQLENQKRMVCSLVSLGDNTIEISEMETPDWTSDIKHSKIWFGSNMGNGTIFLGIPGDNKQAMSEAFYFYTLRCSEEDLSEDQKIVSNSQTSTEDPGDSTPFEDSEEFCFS

B1: 23RSS-A488 (dsDNA)
DNA 1: GATCTGGCCTGTCTTACACAGTGATGGAAGCTCAATCTGAACTCTGACAAAAACCTCGAGCGGAG
DNA 2: CTCCGCTCGAGGTTTTTGTCAGAGTTCAGATTGAGCTTCCATCACTGTGTAAGACAGGCCAGATC
HMGB1-WT [1]
  Kd: 57 nM
RAG1c (core RAG1) [2]
  Kd: 78 nM

B2: 23RSS (dsDNA)
DNA 1: B1 DNA 1
DNA 2: B1 DNA 2
[3]
  binding result: binds

B3: 23RSS-biotin (dsDNA)
DNA 1: B1 DNA 1
DNA 2: B1 DNA 2
[4]
  binding result: binds

B4: 32P-23RSS (dsDNA)
DNA 1: B1 DNA 1
DNA 2: B1 DNA 2
[5]
  binding result: binds

B5: 23MUT-A488 (dsDNA)
DNA 1: GATCTGGCCTGTCTTAACGCAGTATGGAAGCTCAATCTGAACTCTGTGTCTCTGATCGAGCGGAG
DNA 2: CTCCGCTCGATCAGAGACACAGAGTTCAGATTGAGCTTCCATACTGCGTTAAGACAGGCCAGATC
HMGB1-WT [6]
  Kd: 66 nM
RAG1c (core RAG1) [7]
  Kd: 104 nM

B6: 23MUT (dsDNA)
DNA 1: B5 DNA 1
DNA 2: B5 DNA 2
[3]
  binding result: binds

B7: 23SCR-biotin (dsDNA)
DNA 1: GCTGCGTCTCAAGTTACGCTGCGAGGAATCCTGGTAAGATCTGCGTTAAGTCGGATTCATCTACG
DNA 2: CGTAGATGAATCCGACTTAACGCAGATCTTACCAGGATTCCTCGCAGCGTAACTTGAGACGCAGC
HMGB1-WT [8]
  binding result: binds
[9]
  binding result: binds

B8: 23SCR (dsDNA)
DNA 1: B7 DNA 1
DNA 2: B7 DNA 2
[3]
  binding result: binds

B9: four-way junction (4WJ) (structured_DNA)
DNA 1: CCTCCGTCCTAGCAAGGGGCTGCTACCGGAAGGG
DNA 2: CCCTTCCGGTAGCAGCCTGAGCGGTGGTTGAAGG
DNA 3: CCTTCAACCACCGCTCAACTCAACTGCAGTCTGG
DNA 4: CCAGACTGCAGTTGAGTCCTTGCTAGGACGGAGG
HMGB1-A488
  binding result: binds
